Experimental data reported in IntAct's records for PubMed 16698797.

B1: Protein O-mannosyl-transferase 1 (Homo sapiens), Q9Y6A1 (parent)
chain: MWGFLKRPVVVTADINLSLVALTGMGLLSRLWRLTYPRAVVFDEVYYGQYISFYMKQIFFLDDSGPPFGHMVLALGGYLGGFDGNFLWNRIGAEYSSNVPVWSLRLLPALAGALSVPMAYQIVLELHFSHCAAMGAALLMLIENALITQSRLMLLESVLIFFNLLAVLSYLKFFNCQKHSPFSLSWWFWLTLTGVACSCAVGIKYMGVFTYVLVLGVAAVHAWHLLGDQTLSNVGADVQCCMRPACMGQMQMSQGVCVFCHLLARAVALLVIPVVLYLLFFYVHLILVFRSGPHDQIMSSAFQASLEGGLARITQGQPLEVAFGSQVTLRNVFGKPVPCWLHSHQDTYPMIYENGRGSSHQQQVTCYPFKDVNNWWIVKDPRRHQLVVSSPPRPVRHGDMVQLVHGMTTRSLNTHDVAAPLSPHSQEVSCYIDYNISMPAQNLWRLEIVNRGSDTDVWKTILSEVRFVHVNTSAVLKLSGAHLPDWGYRQLEIVGEKLSRGYHGSTVWNVEEHRYGASQEQRERERELHSPAQVDVSRNLSFMARFSELQWRMLALRSDDSEHKYSSSPLEWVTLDTNIAYWLHPRTSAQIHLLGNIVIWVSGSLALAIYALLSLWYLLRRRRNVHDLPQDAWLRWVLAGALCAGGWAVNYLPFFLMEKTLFLYHYLPALTFQILLLPVVLQHISDHLCRSQLQRSIFSALVVAWYSSACHVSNTLRPLTYGDKSLSPHELKALRWKDSWDILIRKH
partner: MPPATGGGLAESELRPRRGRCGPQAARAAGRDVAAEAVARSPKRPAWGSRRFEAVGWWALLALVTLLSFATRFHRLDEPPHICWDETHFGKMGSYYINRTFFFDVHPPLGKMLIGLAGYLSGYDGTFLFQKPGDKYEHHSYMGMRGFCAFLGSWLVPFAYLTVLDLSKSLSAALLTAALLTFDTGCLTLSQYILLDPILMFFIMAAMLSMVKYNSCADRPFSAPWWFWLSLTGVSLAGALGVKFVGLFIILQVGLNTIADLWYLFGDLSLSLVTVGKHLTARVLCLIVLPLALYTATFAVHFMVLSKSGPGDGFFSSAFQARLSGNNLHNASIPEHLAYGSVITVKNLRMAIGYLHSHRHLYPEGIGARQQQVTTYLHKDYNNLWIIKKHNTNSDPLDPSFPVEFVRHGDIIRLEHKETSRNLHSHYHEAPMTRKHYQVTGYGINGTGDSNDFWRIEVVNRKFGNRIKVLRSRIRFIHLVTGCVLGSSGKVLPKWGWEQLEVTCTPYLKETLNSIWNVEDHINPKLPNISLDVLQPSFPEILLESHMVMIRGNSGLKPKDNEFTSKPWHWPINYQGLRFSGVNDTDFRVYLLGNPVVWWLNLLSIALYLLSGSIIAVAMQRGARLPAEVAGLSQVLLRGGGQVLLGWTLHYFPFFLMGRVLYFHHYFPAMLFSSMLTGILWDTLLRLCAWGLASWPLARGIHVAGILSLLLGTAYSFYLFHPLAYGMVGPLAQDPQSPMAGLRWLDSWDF

Variants of: B1
Conditions: with pomt2_human POMT2, Q9UKY4

Effect of a mutation on the interaction, with no effect:
G76R
V428D
G65R
W582C
A200P
